Measurements taken from EP1988165A1 (THE UNIVERSITY OF NORTH CAROLINA AT CHAPEL HILL, dated 2008).

Assays:
[1] = target: T1, CDC53 fused in-frame with the Gal4 DNA binding domain (pGBT8-CDC53) (yeast; Saccharomyces cerevisiae, UniProt P04386 1-147; Q12018 1-815); experiment: yeast two-hybrid (FIG. 5D)
[2] = target: T2, CUL-B (ORF YGR003w) fused in-frame with the Gal4 DNA binding domain (pGBT8) (yeast; Saccharomyces cerevisiae, UniProt P04386 1-147; P53202 1-744); experiment: yeast two-hybrid (FIG. 5D)
[3] = target: T3, CUL-C (ORF YJL047c) fused in-frame with the Gal4 DNA binding domain (pGBT8) (yeast; Saccharomyces cerevisiae, UniProt P04386 1-147; P47050 1-842); experiment: yeast two-hybrid (FIG. 5D)
[4] = target: T4, ScAPC2 fused in-frame with the GAL4 activation domain (yeast; Saccharomyces cerevisiae, UniProt Q12440 1-853); experiment: yeast two-hybrid (FIG. 5D)
T4 construct: also called yeast APC2
T4 sequence (looked up): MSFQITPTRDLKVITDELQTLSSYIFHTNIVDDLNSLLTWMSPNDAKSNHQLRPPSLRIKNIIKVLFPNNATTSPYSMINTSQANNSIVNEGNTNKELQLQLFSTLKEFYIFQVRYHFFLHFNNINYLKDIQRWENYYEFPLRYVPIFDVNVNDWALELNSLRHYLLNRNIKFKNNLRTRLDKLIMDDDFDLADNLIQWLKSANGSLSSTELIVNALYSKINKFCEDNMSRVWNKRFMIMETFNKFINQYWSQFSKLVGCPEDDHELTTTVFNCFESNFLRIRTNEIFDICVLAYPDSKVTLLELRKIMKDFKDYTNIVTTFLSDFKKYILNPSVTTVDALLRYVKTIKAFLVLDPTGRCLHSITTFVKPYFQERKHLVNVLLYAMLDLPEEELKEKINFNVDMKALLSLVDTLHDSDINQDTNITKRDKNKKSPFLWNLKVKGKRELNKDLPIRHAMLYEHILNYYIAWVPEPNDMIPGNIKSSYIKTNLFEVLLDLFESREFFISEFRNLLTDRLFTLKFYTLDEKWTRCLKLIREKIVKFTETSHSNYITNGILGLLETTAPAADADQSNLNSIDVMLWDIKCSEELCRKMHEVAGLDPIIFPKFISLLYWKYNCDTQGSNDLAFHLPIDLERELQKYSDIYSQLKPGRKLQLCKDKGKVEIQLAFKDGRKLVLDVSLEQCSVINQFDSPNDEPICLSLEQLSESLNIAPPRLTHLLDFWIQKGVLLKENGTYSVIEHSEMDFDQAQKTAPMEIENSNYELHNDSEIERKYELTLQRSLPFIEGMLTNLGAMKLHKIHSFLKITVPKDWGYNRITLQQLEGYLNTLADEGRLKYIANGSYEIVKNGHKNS

[5] = target: T5, human ROC1 fused in-frame with the DNA activation domain of Gal4 (pGAD-ROC1) (yeast; human, UniProt P62877 1-108); experiment: yeast two-hybrid; library screen with mouse cullin 4A as bait and FIG. 1A
T5 construct: Yeast two-hybrid prey; also called regulator of cullins

[6] = target: T6, HA-epitope tagged human ROC1 (human, UniProt P62877 1-108); experiment: co-immunoprecipitation with anti-HA from [35S]-methionine labeled transfected cells (FIG. 3A)
T6 construct: Expressed by transfection in mammalian cells (Saos-2, HeLa, 293T); also called HA-ROC1

[7] = target: human ROC1, untagged (endogenous in HeLa and Saos-2 cells, or in vitro translated) (human, UniProt P62877 1-108); experiment: immunopurification of ROC1 immunocomplexes from HeLa cells and protein microsequencing
[8] = target: T1, CDC53 fused in-frame with the Gal4 DNA …; experiment: yeast two-hybrid, histidine reporter (FIG. 5D)
[9] = target: T2, CUL-B (ORF YGR003w) fused in-frame with …; experiment: yeast two-hybrid, histidine reporter (FIG. 5D)
[10] = target: T3, CUL-C (ORF YJL047c) fused in-frame with …; experiment: yeast two-hybrid, histidine reporter (FIG. 5D)
[11] = target: T7, mouse APC2 fused to the Gal4 DNA binding domain (yeast; mouse, UniProt P04386 1-147; Q8BZQ7 15-837, limits assumed); experiment: yeast two-hybrid, -LWH medium with 5 mM 3-AT (FIG. 4E)
T7 construct: also called GAL4BD-APC2

myc-epitope tagged APC2 = myc-epitope tagged APC2 (mouse, UniProt Q8BZQ7 15-837, limits assumed); experiment: co-immunoprecipitation from transfected HeLa cells
Sequence of myc-epitope tagged APC2 (Q8BZQ7 15-837 limits assumed): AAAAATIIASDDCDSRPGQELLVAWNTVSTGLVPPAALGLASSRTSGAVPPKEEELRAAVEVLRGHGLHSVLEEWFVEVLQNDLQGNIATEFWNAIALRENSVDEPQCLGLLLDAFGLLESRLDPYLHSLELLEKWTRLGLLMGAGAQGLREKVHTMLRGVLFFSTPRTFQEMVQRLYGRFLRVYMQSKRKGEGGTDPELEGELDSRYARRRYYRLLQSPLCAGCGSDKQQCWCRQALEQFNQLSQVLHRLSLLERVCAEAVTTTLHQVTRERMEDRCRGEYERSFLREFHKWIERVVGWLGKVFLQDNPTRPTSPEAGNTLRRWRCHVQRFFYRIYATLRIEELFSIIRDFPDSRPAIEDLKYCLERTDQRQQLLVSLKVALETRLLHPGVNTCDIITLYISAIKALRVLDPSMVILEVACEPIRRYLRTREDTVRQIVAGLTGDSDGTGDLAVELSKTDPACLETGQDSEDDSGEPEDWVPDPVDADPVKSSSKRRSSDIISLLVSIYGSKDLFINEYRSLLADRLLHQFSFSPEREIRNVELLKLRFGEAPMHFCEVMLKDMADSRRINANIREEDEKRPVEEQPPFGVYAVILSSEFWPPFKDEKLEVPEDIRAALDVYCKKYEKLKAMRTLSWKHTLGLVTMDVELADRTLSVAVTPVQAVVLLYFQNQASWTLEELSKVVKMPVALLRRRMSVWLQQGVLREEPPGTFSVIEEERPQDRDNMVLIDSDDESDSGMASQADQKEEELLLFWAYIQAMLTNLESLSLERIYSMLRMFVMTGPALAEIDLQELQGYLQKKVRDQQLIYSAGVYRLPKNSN

Sequence of human ROC1, untagged (endogenous in HeLa and Saos-2 cells, or in vitro translated) (P62877 whole entry, the tested form may be a part): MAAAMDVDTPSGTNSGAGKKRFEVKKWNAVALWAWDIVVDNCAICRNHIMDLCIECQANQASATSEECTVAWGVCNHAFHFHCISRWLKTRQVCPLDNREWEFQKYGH
T5 sequence (P62877 whole entry, the tested form may be a part): as above
T6 sequence (P62877 whole entry): as the sequence (P62877 whole entry, the tested form may be a part) above

B1: ScROC1 fused in-frame with the GAL4 activation domain (pGAD-ScROC1) (other, Saccharomyces cerevisiae, UniProt Q08273 1-121, looked up, not shown: large carriers)
chain: MSNEVDRMDVDEDESQNIAQSSNQSAPVETKKKRFEIKKWTAVAFWSWDIAVDNCAICRNHIMEPCIECQPKAMTDTDNECVAAWGVCNHAFHLHCINKWIKTRDACPLDNQPWQLARCGR
notes: also called yeast ROC1; ROC1p
binding result [1]: binds | binding result [2]: binds | binding result [3]: binds

B2: ScROC1 fused in-frame with the Gal4 DNA binding domain (pGBT8-ScROC1) (other, yeast;Saccharomyces cerevisiae, UniProt P04386 1-147, looked up)
chain: MKLLSSIEQACDICRLKKLKCSKEKPKCAKCLKNNWECRYSPKTKRSPLTRAHLTEVESRLERLEQLFLLIFPREDLDMILKMDSLQDIKALLTGLFVQDNVNKDAVTDRLASVETDMPLTLRQHRISATSSSEESSNKGQRQLTVSMSNEVDRMDVDEDESQNIAQSSNQSAPVETKKKRFEIKKWTAVAFWSWDIAVDNCAICRNHIMEPCIECQPKAMTDTDNECVAAWGVCNHAFHLHCINKWIKTRDACPLDNQPWQLARCGR
binding result [4]: binds

B3: full-length mouse cullin 4A fused in frame with the DNA-binding domain of Gal4 (other, yeast;mouse, UniProt P04386 1-147, looked up)
chain: MKLLSSIEQACDICRLKKLKCSKEKPKCAKCLKNNWECRYSPKTKRSPLTRAHLTEVESRLERLEQLFLLIFPREDLDMILKMDSLQDIKALLTGLFVQDNVNKDAVTDRLASVETDMPLTLRQHRISATSSSEESSNKGQRQLTVSMADEGPRKGSVSALMGRTNGLTKPAALAGGPAKPGGTGGSRKLVIKNFRDRPRLPDNYTQDTWRKLHEAVKAIQSSTSIRYNLEELYQAVENLCSHKVSPTLYKQLRQVCEDHVQAQILPFREDSLDSVLFLKKINTCWQDHCRQMIMIRSIFLFLDRTYVLQNSMLPSIWDMGLELFRNHIISDRMVQSKTIDGILLLIGRERSGEAVDRSLLRSLLSMLSDLQVYKDSFELKFLEETNCLYAAEGQRLMQDREVPEYLNHVSKRLEEEADRVITYLDHSTQKPLIACVEKQLLGEHLTAILQKGLEHLLDENRVPDLTQMYQLFSRVKGGQHALLQHWSEYIKTFGTTIVINPEKDKDMVQDLLDFKDKVDHVVEVCFQRNERFINLMKESFETFINKRPNKPAELIAKHVDSKLRAGNKEATDEELERILDKIMILFRFIHGKDVFEAFYKKDLAKRLLVGKSASVDAEKSMLSKLKHECGAAFTSKLEGMFKDMELSKDIMVHFKQHMQNQSAPGPIDLTVNILTMGYWPTYTPMEVHLPPEMVRLQEVFKTFYLGKHSGRKLQWQTTLGHAVLKADFKEGKKEFQVSLFQTLVLLMFNEGDGFSFEEIKMATGIEDSELRRTLQSLACGKARVLIKSPKGKEVEDGDKFIFNADFKHKLFRIKINQIQMKETVEEQVSTTERVFQDRQYQIDAAIVRIMKMRKTLGHNLLVSELYNQLKFPVKPGDLKKRIESLIDRDYMERDKDSPNQYHYVA
notes: Yeast two-hybrid bait, also used for the library screen; also called mouse CUL4A; CUL4A
binding result [5]: binds

B4: myc-epitope tagged mouse CUL4A (other, UniProt Q3TCH7 1-759, looked up, not shown: small tags and cut ends)
chain: MADEGPRKGSVSALMGRTNGLTKPAALAGGPAKPGGTGGSRKLVIKNFRDRPRLPDNYTQDTWRKLHEAVKAIQSSTSIRYNLEELYQAVENLCSHKVSPTLYKQLRQVCEDHVQAQILPFREDSLDSVLFLKKINTCWQDHCRQMIMIRSIFLFLDRTYVLQNSMLPSIWDMGLELFRNHIISDRMVQSKTIDGILLLIGRERSGEAVDRSLLRSLLSMLSDLQVYKDSFELKFLEETNCLYAAEGQRLMQDREVPEYLNHVSKRLEEEADRVITYLDHSTQKPLIACVEKQLLGEHLTAILQKGLEHLLDENRVPDLTQMYQLFSRVKGGQHALLQHWSEYIKTFGTTIVINPEKDKDMVQDLLDFKDKVDHVVEVCFQRNERFINLMKESFETFINKRPNKPAELIAKHVDSKLRAGNKEATDEELERILDKIMILFRFIHGKDVFEAFYKKDLAKRLLVGKSASVDAEKSMLSKLKHECGAAFTSKLEGMFKDMELSKDIMVHFKQHMQNQSAPGPIDLTVNILTMGYWPTYTPMEVHLPPEMVRLQEVFKTFYLGKHSGRKLQWQTTLGHAVLKADFKEGKKEFQVSLFQTLVLLMFNEGDGFSFEEIKMATGIEDSELRRTLQSLACGKARVLIKSPKGKEVEDGDKFIFNADFKHKLFRIKINQIQMKETVEEQVSTTERVFQDRQYQIDAAIVRIMKMRKTLGHNLLVSELYNQLKFPVKPGDLKKRIESLIDRDYMERDKDSPNQYHYVA
notes: also called myc-mCUL4A; cullin 4A
binding result [6]: binds

B5: human CUL2, endogenous in HeLa cells (other, UniProt Q13617 1-745, looked up)
chain: MSLKPRVVDFDETWNKLLTTIKAVVMLEYVERATWNDRFSDIYALCVAYPEPLGERLYTETKIFLENHVRHLHKRVLESEEQVLVMYHRYWEEYSKGADYMDCLYRYLNTQFIKKNKLTEADLQYGYGGVDMNEPLMEIGELALDMWRKLMVEPLQAILIRMLLREIKNDRGGEDPNQKVIHGVINSFVHVEQYKKKFPLKFYQEIFESPFLTETGEYYKQEASNLLQESNCSQYMEKVLGRLKDEEIRCRKYLHPSSYTKVIHECQQRMVADHLQFLHAECHNIIRQEKKNDMANMYVLLRAVSTGLPHMIQELQNHIHDEGLRATSNLTQENMPTLFVESVLEVHGKFVQLINTVLNGDQHFMSALDKALTSVVNYREPKSVCKAPELLAKYCDNLLKKSAKGMTENEVEDRLTSFITVFKYIDDKDVFQKFYARMLAKRLIHGLSMSMDSEEAMINKLKQACGYEFTSKLHRMYTDMSVSADLNNKFNNFIKNQDTVIDLGISFQIYVLQAGAWPLTQAPSSTFAIPQELEKSVQMFELFYSQHFSGRKLTWLHYLCTGEVKMNYLGKPYVAMVTTYQMAVLLAFNNSETVSYKELQDSTQMNEKELTKTIKSLLDVKMINHDSEKEDIDAESSFSLNMNFSSKRTKFKITTSMQKDTPQEMEQTRSAVDEDRKMYLQAAIVRIMKARKVLRHNALIQEVISQSRARFNPSISMIKKCIEVLIDKQYIERSQASADEYSYVA
notes: also called cullin 2
binding result [7]: binds

B6: ScAPC11 fused in-frame with the GAL4 activation domain (pGAD) (other, Saccharomyces cerevisiae, UniProt Q12157 1-165, looked up, not shown: large carriers)
chain: MKVKINEVHSVFAWSWHIPSTSDEDAANNDPIGNDEDEDVCGICRASYNGTCPSCKFPGDQCPLVIGLCHHNFHDHCIYRWLDTPTSKGLCPMCRQTFQLQKGLAINDAHVQKFVEIVSRRREEMIEEGVAEEFVDFDEPIRQNTDNPIGRQQVDTILDEDFLLR
notes: also called yeast APC11
binding result [8]: no binding | binding result [9]: no binding | binding result [10]: binds

B7: full length human ROC2 fused in-frame with the yeast Gal4 DNA activation domain (other, not shown: large carriers)
chain: MFSLKKWNPVAMWSWDVECDTCAICRVQVMDACLRCQAENKQEDCVVVWGECNHSFHNCCMSLWVKQNNRCPLCQQDWVVQRIGK
notes: Yeast two-hybrid prey
binding result [11]: no binding

B8: HA tagged human ROC2 (other, not shown: small tags and cut ends)
chain: ADVEDGEETCALASHSGSSGSTSGGDKMFSLKKWNPVAMWSWDVECDTCAICRVQVMDACLRCQAENKQEDCVVVWGECNHSFHNCCMSLWVKQNNRCPLCQQDWVVQRIGK
notes: Transfected protein migrates as a doublet; also called HA-ROC2
binding result (myc-epitope tagged APC2): no binding
